Reference: patent US10689423B2, “CTLA4-binding protein peptide-linker masks” (City of Hope, priority 2015, dated 2020)

B1: Unmasked mLcn2-Fc: masked mLcn2-Fc treated with MMP9, mask released (protein)
chain: QDSTSDLIPAPPLSKVPLQQNFQDNQFHGKWYVVGLAGNRILRDDQHPMNMYATIYELKEDKSYNVTSVISSHKKCEYTIATFVPGSQPGEFTLGNIKSYGDKTSYLVRVVSTDYNQYAVVFFKLAEDNAEFFAITIYGRTKELASELKENFIRFSKSLGLPENHIVFPVPIDQCIDG
modifications: left off: small tags and cut ends; a dimerising Fc or GST
notes: masked mLcn2-Fc treated with MMP9, mask released
B2: mLCN2: modified lipocalin2 used as a CTLA-4 antagonist, SEQ ID NO:34 (protein, listed as Homo sapiens)
chain: B1 chain
B3: mLcn2-Fc: mLcn2 fused to IgG1 Fc without a mask fused to the N-terminus (positive control) (protein)
chain: B1 chain
modifications: left off: a dimerising Fc or GST

Legend:
[1] = test system: tumor-infiltrating lymphocytes (TILs) in B16 tumor tissues; assay: In vivo detection of mLcn2 variants in B16 tumor tissues (IHC); settings: i.v. 100 μg, melanoma-bearing mice, tumor samples 72 hr post-dose; listed as unmasked (MMP9-pretreated) mLcn2
Experimental: FIG. 4: In vivo detection of mLcn2 variants (CTLA-4 binding protein variants) in B16 tumor tissues.
(§1) FIG. 9: Biodistribution of mLcn2-Fc constructs in vivo. (A-C) Naïve mice were injected i.v. with 100 μg of indicated mLcn2-Fc construct and tissue samples were collected 48 hr. post-dose. Cryosections were stained for CD4 or CD8 (medium gray) and human IgG (light gray) from the thymus (A), spleen (B), and pituitary gland (C, IgG only). (D) Melanoma-bearing mice were injected as above and tumor samples were collected 72 hr. post-dose. 4′,6-diamidino-2-phenylindole (DAPI) nuclear staining shown in dark gray.
FIG. 17: Melanoma-bearing mice were injected i.v. with 100 μg of indicated mLcn2-Fc construct and tumor samples were collected 72 hr. post-dose. Cryosections were stained for CD4 or CD8 (medium gray) and human IgG (light gray). […] 4′,6-diamidino-2-phenylindole (DAPI) nuclear staining shown in dark gray.
(§2) In these experiments constructs were injected i.v. into C57/B16 mice bearing B16 melanomas. Three days after injection, tumor and tissue samples were collected and doublestained using antibodies recognizing either CD4 or CD8 and mLcn2 (e.g. human IgG-Fc). Membranes of both intratumoral CD4+ and CD8+ T cells were decorated with mLcn2 which was not detected on other cell types.

pituicytes = assay: In vivo binding of mLcn2 variants to cells within the pituitary gland; settings: naïve mice, i.v. 100 μg, 48 hr post-dose, human IgG staining
Experimental: FIG. 5: Binding of CTLA-4 antagonist mLcn2 variants to cells within the pituitary gland.
as §1
FIG. 18: Naïve mice were injected i.v. with 100 μg of indicated mLcn2-Fc construct and tissue samples were collected 48 hr. post-dose. Cryosections were stained for human IgG (light gray).
as §2

[2] = test system: human CTLA4-Fc on Tni insect cells; assay: Flow cytometry of Tni insect cells transiently expressing human CTLA4-Fc; format: cell-based; settings: Alexa Fluor-647 conjugated variants
Text: FIG. 10C: Flow cytometry analysis of Tni insect cells induced to transiently express human CTLA4-Fc. Cells were stained with Alexa Fluor-647 conjugated mLcn2-Fc variants and gated for Forward scatter/Side scatter, DAPI^−, singlet size (pulse width), and APC. Uninfected cells stained with mLcn2-Fc are shown in grey as a negative control.

[3] = test system: CD4/CD8 negative cells in the spleen; assay: In vivo binding of mLcn2 constructs in the spleen; set-up: species or system mice; settings: not shown; potentially due to FcR binding
Experimental: as §1
FIG. 16: Naïve mice were injected i.v. with 100 μg of indicated mtLCN2-Fc construct and tissue samples were collected 48 hr. post-dose. Cryosections were stained for CD4 or CD8 (medium gray) and human IgG (light gray) from the spleen.
as §2

CTLA-4 = assay: Size-exclusion chromatography analysis of CTLA-4 binding to mLcn2-Fc constructs
[4] = test system: murine, primate and human CTLA-4; assay: CTLA-4 species cross-reactivity of mLcn2; format: binding
CTLA-4-Fc = assay: SPR kinetics of monomeric mLCN2 and dimeric mLCN2-Fc on immobilized CTLA-4-Fc; format: binding; settings: dimeric CTLA-4-Fc immobilized at medium density on CM5 chip
Experimental: FIG. 10A: SPR analysis. Dimeric CTLA-4-Fc was immobilized at medium density to a CM5 chip. A range of 3-1000 nM monomeric mLCN2 (top) and 3-300 nM dimeric mLCN2-Fc (bottom) analytes were used for kinetics analyses. […] Concentration of analytes is 1000; 300; 30; and 3 nM.

Sequence of CTLA-4-Fc (P16410 36-161 limits assumed): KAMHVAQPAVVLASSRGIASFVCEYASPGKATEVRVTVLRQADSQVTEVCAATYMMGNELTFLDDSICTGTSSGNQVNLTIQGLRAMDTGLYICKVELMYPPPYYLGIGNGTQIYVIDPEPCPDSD
Sequence of CTLA-4 (P16410 36-161 limits assumed): as above
Sequence of human CTLA4-Fc on Tni insect cells (P16410 36-161 limits assumed): as above

Molecule	staining of CD4 or CD8 TILs in tumor [1]	binding to pituitary gland cells (pituicytes)	binding to CTLA4-Fc expressing Tni cells [2]	binding in the spleen [3]	CTLA-4 binding by SEC (CTLA-4; FIG. 3B)	SEC elution volume of construct incubated with CTLA-4 (CTLA-4; Superdex 200, apo CTLA-4 13.0 mL, apo constructs ~12.7 mL) [mL]	CTLA-4 binding across species [4]	ka (CTLA-4-Fc)	kd (CTLA-4-Fc)
B1	membrane staining of tumor-infiltrating lymphocytes (TILs)	bound equally well to pituicytes	showed binding to cells	bound to CD4/CD8 negative cells in the spleen	binding of CTLA-4 only to unmasked mLcn2-Fc constructs	11.3	–	–	–
B2	–	reactivity with non-immune cells in the pituitary glands	–	–	–	–	binds to murine, primate and human CTLA-4	3.6 E4 M^−1 s^−1	2.0 E-4 s^−1
B3	–	bound equally well to pituicytes	showed binding to cells	–	–	–	–	1.0 E4 M^−1 s^−1	could not be determined as it was beyond the limitations of the instrument
